Assay results published in US20200385482A1.
Blank lines part the entries; values can stand above or below the binder they belong to.

Assays:
[1] = molecular target: human C-type lectin domain family 2 member (hCLEC2D) expressed on transfected 300.19 cells (human) (UniProt Q9UHP7); assay: FACS, hCLEC2D 300.19 cells, assay 2, Ab 0.1 ug/ml
[2] = molecular target: human C-type lectin domain family 2 member (hCLEC2D) expressed on transfected 300.19 cells (human) (UniProt Q9UHP7); assay: FACS, hCLEC2D 300.19 cells, assay 2, Ab 1 ug/ml
[3] = molecular target: human C-type lectin domain family 2 member (hCLEC2D) expressed on transfected 300.19 cells (human) (UniProt Q9UHP7); assay: FACS, hCLEC2D 300.19 cells, assay 1, Ab 0.01 ug/ml
[4] = molecular target: human C-type lectin domain family 2 member (hCLEC2D) expressed on transfected 300.19 cells (human) (UniProt Q9UHP7); assay: FACS, hCLEC2D 300.19 cells, assay 1, Ab approx 10 ug/ml
[5] = molecular target: human C-type lectin domain family 2 member (hCLEC2D) expressed on transfected 300.19 cells (human) (UniProt Q9UHP7); assay: FACS, hCLEC2D 300.19 cells, assay 1, Ab 0.1 ug/ml
[6] = molecular target: human C-type lectin domain family 2 member (hCLEC2D) expressed on transfected 300.19 cells (human) (UniProt Q9UHP7); assay: FACS, hCLEC2D 300.19 cells, assay 1, Ab 1 ug/ml
[7] = molecular target: human C-type lectin domain family 2 member (hCLEC2D) expressed on transfected 300.19 cells (human) (UniProt Q9UHP7); assay: FACS, hCLEC2D 300.19 cells, assay 2, Ab 0.01 ug/ml
[8] = molecular target: human C-type lectin domain family 2 member (hCLEC2D) expressed on transfected 300.19 cells (human) (UniProt Q9UHP7); assay: FACS, hCLEC2D 300.19 cells, assay 2, Ab approx 10 ug/ml

Sequence of human C-type lectin domain family 2 member (hCLEC2D) expressed on transfected 300.19 cells (human) (Q9UHP7 whole entry, the tested form may be a part): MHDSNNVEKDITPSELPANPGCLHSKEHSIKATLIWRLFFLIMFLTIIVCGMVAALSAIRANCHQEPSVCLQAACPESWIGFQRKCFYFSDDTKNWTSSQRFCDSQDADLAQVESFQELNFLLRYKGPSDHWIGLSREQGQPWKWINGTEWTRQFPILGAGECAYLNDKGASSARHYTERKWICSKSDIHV

Cells PE-A Mean [1]: 294 MFI
Cells PE-A Mean [2]: 898 MFI
Cells PE-A Mean [3]: 154 MFI
Cells PE-A Mean [4]: 2370 MFI
Cells PE-A Mean [5]: 294 MFI
Cells PE-A Mean [6]: 898 MFI
Cells PE-A Mean [7]: 154 MFI
Cells PE-A Mean [8]: 2370 MFI
B1: Ab-16 (antibody, V domains shown)
VH: EVQLVQSGGGVVQPGRSLRLSCAASGFTFSSYALSWVRQAPGKGLEWVSAISGGGGSTYYADSVKGRFTISRDNSKNTLYLQMNSLRAEDTAVYYCAKDVFPETFSMNYGMDVWGQGTLVTVSS
VL: SSELTQDPAVSVALGQTVRITCQGDSLRSYYASWYQQKPGQAPVLVIYGKNNRPSGIPDRFSGSSSGNTASLTITGAQAEDEADYYCNSRDSSGNHYVFGTGTKVTVL

Cells PE-A Mean [1]: 360 MFI
Cells PE-A Mean [2]: 870 MFI
Cells PE-A Mean [3]: 153 MFI
Cells PE-A Mean [4]: 2950 MFI
Cells PE-A Mean [5]: 360 MFI
Cells PE-A Mean [6]: 870 MFI
Cells PE-A Mean [7]: 153 MFI
Cells PE-A Mean [8]: 2950 MFI
B2: Ab-31 (antibody, V domains shown)
VH: QVQLVQSGAEVKKPGATVKVSCKVFGDTFRGLYIHWVRQAPGQGLEWMGGIIPIFGTANYAQKFQGRVTITTDESTSTAYMELSSLRSEDTAVYYCASGLRWGIWGWFDPWGQGTLVTVSS
VL: EIVLTQSPATLSLSPGERATLSCRASQSIGNSLAWYQQKPGQAPRLLMYGASSRATGIPDRFSGSGAGTDFTLTISSLEPEDFATYYCQQHTIPTFSFGPGTKVEVK

Cells PE-A Mean [1]: 298 MFI
Cells PE-A Mean [2]: 1100 MFI
Cells PE-A Mean [3]: 166 MFI
Cells PE-A Mean [4]: 3140 MFI
Cells PE-A Mean [5]: 298 MFI
Cells PE-A Mean [6]: 1100 MFI
Cells PE-A Mean [7]: 166 MFI
Cells PE-A Mean [8]: 3140 MFI
B3: Ab-52 (antibody, V domains shown)
VH: QVQLQESGGGVVQPGRSLRLSCSASGFTFSRHGMHWVRQAPGKGLEWVAVISHDGSVKYYADSMKGRFSISRDNSNNTLYLQMDSLRADDTAVYYCARGLSYQVSGWFDPWGQGTLVTVSS
VL: NFMLTQPHSVSESPGKTVTISCTRSSGSIASNYVQWYQQRPGSAPTTVIYEDNQRPSGVPDRFSGSIDSSSNSASLTISGLKTEDEADYYCQSYDSTTPSVFGGGTKLTVL
